Patent publication US11156615B2 (priority 2015, dated 2021)
Substitutions are numbered along the chain they refer to. Where two headings read alike, the source gives them in different places. Values belong to the molecule of their own block, whether it stands above or below them.

Tests used:
[1] = type: physicochemical
From the text: (§1) Panels A-C: ttGBP182C.2.0-Imm0; Panels D-F: ttGBP182C.2.0-Imm1 (see FIG. 13). (A) Solution (Tm=347.6K). (B) Immobilized on Nickel-nitriloacetic acid (Ni-NTA) beads (Tm=346.7K). (C) Reconstituted, desiccated Ni-NTA beads (Tm=347.6K). (D) Fluorescence response of ttGGBP5.2 Imm1 immobilized on NHS-functionalized agarose beads. Data was collected on a Roche LightCycler real-time PCS instrument, recording emission intensities at 488 nm and 510 nm as a function of temperature in a 384-well microtiter plate. […] Temperature melts of twelve different wells. Apo protein thermostability as reported by the denaturation mid-point temperature is 349 K, similar to the protein free in solution. […] (F) Representative Langmuir ligand-binding curve extracted from the three-dimensional data.
(§2) Site-specific immobilization minimizes perturbation of the sensing mechanism. […] Similarly, hexa-lysine fusion domains were immobilized on agarose beads derivatized with N-hydroxysuccinimide, and the QNK- or βZif-fusion on iodacetyl-derivatized beads.

[2] = Glucose titration of bead-immobilized sensor; type: binding; conditions: read-out: Kd (glucose); 25° C.; immobilized on NHS-functionalized agarose beads
From the text: as §1
Data were highly precise, being reproducible <0.2% coefficient of variance.
as §2

[3] = Thermostability: mid-point thermal denaturation temperature (Tm) from temperature-dependent fluorescence (Roche LightCycler); type: physicochemical; conditions: for apoTm: apo-protein
Summary of the method: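 Unfolding tracked by SYPRO binding to denatured protein, fluorescence at 488 nm/510 nm recorded on a LightCycler as temperature rose in 1 K steps. Tm taken as denaturation mid-point, for protein in solution or immobilized on Ni-NTA or NHS-agarose beads.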

[4] = Glucose binding: isothermal fluorescence titrations, ratiometric (appKd) and monochromatic (trueKd) fits; parameters: key to Glucose appKd / Glucose trueKd: nb, no bonding; conditions: room temperature
From the text: 2 For a single glucose-binding site, the fractional saturation is given by
[formula] where ^apoIλ2 and ^satIλ2 are the emission intensities of the monochromatic signal at wavelength λ2 of the ligand-free and ligand-bound protein, respectively.

[5] = Glucose-dependent fluorescence emission intensity spectra of conjugates (Nanodrop3300); type: biochemical; conditions: Nanodrop3300
From the text: Semi-synthetic FRSs were engineered by site-specifically attaching thiol-reactive, environmentally sensitive fluorophores that respond to ligand-mediated conformational changes. Identification of FRS candidates that are useful for sensing applications comprises three steps: • 1. Cysteine scan. Mutant glucose-binding proteins containing single cysteines are constructed for site-specific attachment of thiol-reactive fluorophores. […] Candidate positions fall into three classes: endosteric, replacing a residue that contacts the ligand directly; peristeric, located at the rim of the binding site; allosteric (Marvin et al. 1997 Proc Natl Acad Sci USA, 94, 4366-71; Marvin 1998 J Am Chem Soc, 120, 7-11), located outside the binding site at sites that undergo local structural changes in concert with the hinge-bending motion. • 2. Fluorophore screening. Thiol-reactive, environmentally sensitive fluorophores are attached to each cysteine mutant prepared in step 1. • 3. Evaluation of the glucose-mediated change of all the fluorescent conjugates prepared in step 2. Responses to ligand binding in which there is both a change in fluorescence emission intensity and spectral shape was essential for chemometric applications, because such changes enable ratiometric measurements. Changes in spectral shape typically are accompanied by a shift in the wavelength of the emission intensity maxima. Three classes of fluorescent responses are possible: • i. No response. • ii. Monochromatic response (emission intensity increases or decreases without a change in spectral shape) • iii.

[6] = Galactose binding: isothermal fluorescence titrations of conjugates; parameters: key to Galactose trueKd: nb, no bonding; conditions: for S, selectivity = trueKd(galactose)/trueKd(glucose): S > 1, selective for glucose; for Kd: read-out: Galactose trueKd; for Kd / Galactose trueKd: monochromatic titration curves, room temperature
[7] = read-out: Glucose appKd, Badan conjugate, dichromatic ratiometry
[8] = read-out: Glucose trueKd, Badan conjugate, monochromatic titration curves
[9] = Badan conjugate of ttGGBP.17C mutant
[10] = read-out: Glucose appKd, Acrylodan conjugate, dichromatic ratiometry
[11] = read-out: Glucose trueKd, Acrylodan conjugate, monochromatic titration curves
[12] = Acrylodan conjugate of ttGGBP.17C mutant

B1: ttGGBP5.2 Imm1: ttGGBP182C.2.0 immobilization fusion construct Imm1 (SEQ ID NO: 175), labelled, on NHS-functionalized agarose beads (conjugate)
chain: MKQLNIGVAIYKFDDTFMTGVRNAMTAEAQGKAKLNMVDSQNSQPTQNDQVDLFITKKMNALAINPVDRTAAGTIIDKAKQANIPVVFFNKEPLPEDMKKWDKVYYVGAKAEQSGILQGQIMADYWKAHPEADKNHDGVMQYVMLMGEPGHQDAILRTQYSIQTVKDAGIKVQELAKDYANCDRVTAHDKMAAWLSSFGDKIEAVFANNDDMALGAIEALKSAGYFTGNKYIPVVGVDATAPGIQAIKDGTLLGTVLNDAKNQAKATFNIAYELAQGITPTKDNIGYDITDGKYVWIPYKKITKDNISDAEQGGSGGSKKKKKKGGSHHHHHH
modifications: fluorescent label; immobilized on NHS-agarose beads; ttGGBP182C.2.0_Imm1
- denaturation mid-point temperature (apo protein thermostability) [1]: 349 K
- Kd [2]: 4800 µM

B2: ttGBP182C.2.0-Imm0: ttGGBP182C.2.0 immobilization fusion construct Imm0 (SEQ ID NO: 173), Acrylodan labelled (conjugate)
chain: MKQLNIGVAIYKFDDTFMTGVRNAMTAEAQGKAKLNMVDSQNSQPTQNDQVDLFITKKMNALAINPVDRTAAGTIIDKAKQANIPVVFFNKEPLPEDMKKWDKVYYVGAKAEQSGILQGQIMADYWKAHPEADKNHDGVMQYVMLMGEPGHQDAILRTQYSIQTVKDAGIKVQELAKDYANCDRVTAHDKMAAWLSSFGDKIEAVFANNDDMALGAIEALKSAGYFTGNKYIPVVGVDATAPGIQAIKDGTLLGTVLNDAKNQAKATFNIAYELAQGITPTKDNIGYDITDGKYVWIPYKKITKDNISDAEQGGSHHHHHH
modifications: Acrylodan label; ttGGBP182C.2.0_Imm0
- Tm ([3]; solution (FIG. 14A)): 74.5 °C
- Tm ([1]; immobilized on Ni-NTA beads (FIG. 14B)): 73.6 °C
- Tm ([1]; reconstituted, desiccated Ni-NTA beads (FIG. 14C)): 74.5 °C

B5: ttGGBP17C.8: affinity-tuning mutant, 17C background, SEQ ID NO: 73 (protein)
chain: B2 chain with T16N, F17C, K91R, E148Q, C182W
modifications: ttGGBP17C.8 (affinity-tuning mutant, 17C background (Table 6) with signal peptide replaced with M and GGSHHHHHH at C-terminus)
- apoTm ([3]; Acrylodan conjugate): 348 K
- Kd [4, 10]: 610 µM
- Kd [4, 11]: 600 µM
- Type of fluorescence response to glucose [5, 12]: r(h) (r(h), ratiometric (hypsochromic shift))
- S, selectivity = trueKd(galactose)/trueKd(glucose) ([6]; Acrylodan conjugate): 0.43
- Kd ([6]; Acrylodan conjugate): 260 µM

B6: ttGGBP17C.6: affinity-tuning mutant, 17C background, SEQ ID NO: 71 (protein)
chain: B2 chain with D15E, F17C, K91R, E148Q, C182W
modifications: ttGGBP17C.6 (affinity-tuning mutant, 17C background (Table 6) with signal peptide replaced with M and GGSHHHHHH at C-terminus)
- apoTm ([3]; Badan conjugate): 346 K
- Kd [4, 7]: 3300 µM
- Kd [4, 8]: 3600 µM
- Type of fluorescence response to glucose [5, 9]: r(h) (r(h), ratiometric (hypsochromic shift))
- S, selectivity = trueKd(galactose)/trueKd(glucose) ([6]; Badan conjugate): 1
- Kd ([6]; Badan conjugate): 3600 µM

B8: ttGGBP17C.26: affinity-tuning mutant, 17C background, SEQ ID NO: 84 (protein)
chain: B2 chain with F17C, K91R, E148Q, C182W, A260W
modifications: ttGGBP17C.26 (affinity-tuning mutant, 17C background (Table 6) with signal peptide replaced with M and GGSHHHHHH at C-terminus)
- apoTm ([3]; Badan conjugate): 346 K
- Kd [4, 7]: 900 µM
- Kd [4, 8]: 900 µM
- Type of fluorescence response to glucose [5, 12]: i (i, intensity increase only)
- Type of fluorescence response to glucose [5, 9]: r(h) (r(h), ratiometric (hypsochromic shift))
- S, selectivity = trueKd(galactose)/trueKd(glucose) ([6]; Badan conjugate): 16
- Kd ([6]; Badan conjugate): 14000 µM

B9: ttGGBP17C.27: affinity-tuning mutant, 17C background, SEQ ID NO: 85 (protein)
chain: B2 chain with F17C, K91R, E148Q, C182W, A260F
modifications: ttGGBP17C.27 (affinity-tuning mutant, 17C background (Table 6) with signal peptide replaced with M and GGSHHHHHH at C-terminus)
- apoTm ([3]; Badan conjugate): 346 K
- Kd [4, 7]: 200 µM
- Kd [4, 8]: 300 µM
- Type of fluorescence response to glucose [5, 9]: i (i, intensity increase only)
- S, selectivity = trueKd(galactose)/trueKd(glucose) ([6]; Badan conjugate): 33
- Kd ([6]; Badan conjugate): 8800 µM

The next lines start with results.

- Kd [4, 7]: 60 µM
- Kd [4, 8]: 70 µM
- S, selectivity = trueKd(galactose)/trueKd(glucose) ([6]; Badan conjugate): 37
- Kd ([6]; Badan conjugate): 2600 µM
B3: ttGGBP17C.28: affinity-tuning mutant, 17C background, SEQ ID NO: 86 (protein)
chain: B2 chain with F17C, K91R, E148Q, C182W, A260Y
modifications: ttGGBP17C.28 (affinity-tuning mutant, 17C background (Table 6) with signal peptide replaced with M and GGSHHHHHH at C-terminus)
- apoTm ([3]; Badan conjugate): 346 K
- Type of fluorescence response to glucose [5, 9]: i (i, intensity increase only)

- Kd [4, 10]: 300 µM
- Kd [4, 7]: 750 µM
- Kd [4, 11]: 300 µM
- Kd [4, 8]: 1000 µM
- S, selectivity = trueKd(galactose)/trueKd(glucose) ([6]; Acrylodan conjugate): 0.91
- S, selectivity = trueKd(galactose)/trueKd(glucose) ([6]; Badan conjugate): 0.64
- Kd ([6]; Acrylodan conjugate): 300 µM
- Kd ([6]; Badan conjugate): 640 µM
B4: ttGGBP17C.7: affinity-tuning mutant, 17C background, SEQ ID NO: 72 (protein)
chain: B2 chain with D15N, F17C, K91R, E148Q, C182W
modifications: ttGGBP17C.7 (affinity-tuning mutant, 17C background (Table 6) with signal peptide replaced with M and GGSHHHHHH at C-terminus)
- apoTm ([3]; Acrylodan conjugate): 348 K
- apoTm ([3]; Badan conjugate): 347 K
- Type of fluorescence response to glucose [5, 12]: d (d, intensity decrease only)
- Type of fluorescence response to glucose [5, 9]: d (d, intensity decrease only)

- Kd [4, 7]: 15000 µM
- Kd [4, 8]: 18000 µM
- Galactose trueKd ([6]; Badan conjugate): nb^c
B7: ttGGBP17C.23: affinity-tuning mutant, 17C background, SEQ ID NO: 81 (protein)
chain: B2 chain with F17C, K91R, E148Q, C182W, A260Q
modifications: ttGGBP17C.23 (affinity-tuning mutant, 17C background (Table 6) with signal peptide replaced with M and GGSHHHHHH at C-terminus)
- apoTm ([3]; Badan conjugate): 344 K
- Type of fluorescence response to glucose [5, 12]: i (i, intensity increase only)
- Type of fluorescence response to glucose [5, 9]: i (i, intensity increase only)

- Glucose appKd ([4]; Badan conjugate, dichromatic ratiometry): nb^e
- Glucose trueKd ([4]; Badan conjugate, monochromatic titration curves): nb^e
- Galactose trueKd ([6]; Badan conjugate): nb^e
B10: ttGGBP17C.20: affinity-tuning mutant, 17C background, SEQ ID NO: 78 (protein)
chain: B2 chain with F17C, K91R, E148Q, C182W, N258S
modifications: ttGGBP17C.20 (affinity-tuning mutant, 17C background (Table 6) with signal peptide replaced with M and GGSHHHHHH at C-terminus)
- apoTm ([3]; Badan conjugate): 344 K
- Type of fluorescence response to glucose [5, 12]: d (d, intensity decrease only)
